Experimental data as given in patent US20180265558A1.

Target: FGFR-1c expressed on BaF3 cells
Test: cell-based or functional assay

modified FGF-1 (S116R mutant protein) (from UniProt P05230 16-155) (ligand)
mitogenic potency on BaF3 cells expressing FGFR-1c, relative to wild-type FGF-1 (fold against wild-type FGF-1): 10
